# Where two headings read alike, the source gives them in different places. Bridge positions count the residues as written; N and C are the ends. Square brackets hold non-standard residues; d marks the D form. Peptide text beside a SMILES is read from it. hArg = N=C(N)NCCCC[C@H](N)C(=O)O; Cit = NC(=O)NCCC[C@H](N)C(=O)O; PEG = not defined here
# Experiments:
# [1] = rat pharmacokinetic studies; details: rat, 2 mg/kg, mean, n = 3
# Experimental: Rat pharmacokinetic studies. […] There were three rats per group (n=3), each weighing 250-325 g. Each group received either a 2 mg/kg intravenous or subcutaneous discrete administration. The approximate dose volume was 0.3 mL per rat. Approximately 0.25 mL of whole blood was taken per time point at the following post-dose collection times for the intravenous groups (in hours): 0.083, 0.25, 0.5, 1, 2, 4, 6, 8, 24, 48, 72, 96 and the following time points for the subcutaneous groups (in hours): 0.25, 0.5, 1, 2, 4, 6, 8, 24, 48, 72, 96. Whole blood samples were collected in microtainer vials containing EDTA as anticoagulant and were kept on wet ice until processed for plasma. The plasma was obtained by centrifuging the whole blood for approximately 5 min at 11,500 rpm. Plasma was transferred to new tubes and stored frozen at approximately −70° C. until quantitative analysis. […] The individual sample concentrations for each time point were averaged (n=3) within a given dose group using Excel 2000 software. The averaged plasma concentration-time data were analyzed by noncompartmental methods using WinNonlin v.3.3 software. Nominal sample times were used in the pharmacokinetic analysis. The area under the concentration-time curve was calculated using the linear/log trapezoidal method to determine exposure.
# [2] = target: T1, CGRP1 receptor (Homo sapiens, UniProt O60894+Q16602); assay: in vitro CGRP1 receptor mediated cAMP assay in SK-N-MC cells; type: cell-based
# T1 construct: SK-N-MC cells express CRLR and RAMP1, which form CGRP1 receptor; endogenous in cells; host or cells: SK-N-MC human neuroblastoma cells
# Outline: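 Human SK-N-MC neuroblastoma cells, which endogenously express CRLR/RAMP1, were plated two days before assay and preincubated in plasma-free medium for 15 minutes at room temperature. Cells were then lysed for 30 minutes at 37° C, and cAMP in the lysates was quantified by competitive cAMP-AP chemiluminescent ELISA.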
# [3] = Table 2C, unconjugated peptide, read-out: Peptide IC50
# T1 sequence (Q16602 23-461): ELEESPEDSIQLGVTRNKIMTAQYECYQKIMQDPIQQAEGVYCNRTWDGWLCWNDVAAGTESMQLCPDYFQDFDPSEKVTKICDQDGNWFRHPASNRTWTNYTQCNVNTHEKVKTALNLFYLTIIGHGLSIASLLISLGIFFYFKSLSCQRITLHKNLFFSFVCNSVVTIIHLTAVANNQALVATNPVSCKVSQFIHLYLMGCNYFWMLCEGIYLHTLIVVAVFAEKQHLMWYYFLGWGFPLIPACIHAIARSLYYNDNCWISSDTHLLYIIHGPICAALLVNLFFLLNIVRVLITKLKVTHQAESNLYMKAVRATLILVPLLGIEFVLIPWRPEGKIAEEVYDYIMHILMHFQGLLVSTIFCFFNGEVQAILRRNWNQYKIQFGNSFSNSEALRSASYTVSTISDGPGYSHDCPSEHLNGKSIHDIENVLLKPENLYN
# T1 sequence (O60894 27-148): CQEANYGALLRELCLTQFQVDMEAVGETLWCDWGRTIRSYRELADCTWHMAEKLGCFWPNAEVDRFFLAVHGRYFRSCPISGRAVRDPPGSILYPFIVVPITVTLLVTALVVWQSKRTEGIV
compound,measurement,setting,value
SEQ ID NO: 15: 20 kDa PEG conjugate of SEQ ID NO:7 (reductive alkylation) (Ac-WVTHRLAGLLSRSGGVVRK(20 kDa PEG)NFVPTDVGPFAF-NH2),AUC0-inf,[1]; IV,12959 ng·h/mL
same,AUC0-t,[1]; IV,12940 ng·h/mL
same,CL,[1]; IV,2.57 mL/min/kg
same,MRT,[1]; IV,1.10 h
same,Vss,[1]; IV,0.174 L/kg
same,t1/2,[1]; IV,10.60 h
same,AUC0-inf,[1]; SC,1542 ng·h/mL
same,AUC0-t,[1]; SC,1264 ng·h/mL
same,CL/F,[1]; SC,20.95 mL/min/kg
same,Cmax,[1]; SC,137 ng/mL
same,Tmax,[1]; SC,2.00 h
same,t1/2,[1]; SC,22.37 h
SEQ ID NO: 40: double glutamine analog PEGylated through amine linkage (Ac-WVTHQLAGLLSQSGGVVRK(PEG)NFVPTDVGPFAF-NH2; reading uncertain),AUC0-inf,[1]; IV,10666 ng·h/mL
same,AUC0-t,[1]; IV,10651 ng·h/mL
same,CL,[1]; IV,3.12 mL/min/kg
same,MRT,[1]; IV,2.63 h
same,Vss,[1]; IV,0.496 L/kg
same,t1/2,[1]; IV,32.57 h
same,AUC0-inf,[1]; SC,1223 ng·h/mL
same,AUC0-t,[1]; SC,1212 ng·h/mL
same,CL/F,[1]; SC,27.23 mL/min/kg
same,Cmax,[1]; SC,121 ng/mL
same,F %,[1]; SC,11%
same,Tmax,[1]; SC,4.00 h
same,t1/2,[1]; SC,27.15 h
"SEQ ID NO: 32: PEGylated R11Cit, R18Cit analog (product of SEQ ID NO:31) (WVTHXLAGLLSXSGGVVRKNFVPTDVGPFAF; PEGylated; citrulline at 11 and 18; CGRP peptide; MOD_RES (1)..(1): …ON; MISC_FEATURE (5)..(5): xaa=citrulline; MISC_FEATURE (12)..(12): xaa=citrulline; MISC_FEATURE (19)..(19): PEGylated; MOD_RES (31)..(31): AMIDATION)",AUC0-inf,[1]; IV,40431 ng·h/mL
same,AUC0-t,[1]; IV,40250 ng·h/mL
same,CL,[1]; IV,0.817 mL/min/kg
same,MRT,[1]; IV,4.12 h
same,Vss,[1]; IV,0.204 L/kg
same,t1/2,[1]; IV,42.78 h
same,AUC0-inf,[1]; SC,19046 ng·h/mL
same,AUC0-t,[1]; SC,18933 ng·h/mL
same,CL/F,[1]; SC,1.75 mL/min/kg
same,Cmax,[1]; SC,1879 ng/mL
same,F %,[1]; SC,47%
same,Tmax,[1]; SC,4.00 h
same,t1/2,[1]; SC,29.98 h
CC(=O)N[C@@H](Cc1c[nH]c2ccccc12)C(=O)N[C@H](C(=O)N[C@H](C(=O)N[C@@H](Cc1cnc[nH]1)C(=O)N[C@@H](CCCNC(N)=O)C(=O)N[C@@H](CC(C)C)C(=O)N[C@@H](C)C(=O)NCC(=O)N[C@@H](CC(C)C)C(=O)N[C@@H](CC(C)C)C(=O)N[C@@H](CO)C(=O)N[C@@H](CCCN=C(N)N)C(=O)N[C@@H](CO)C(=O)NCC(=O)NCC(=O)N[C@H](C(=O)N[C@H](C(=O)N[C@@H](CCCN=C(N)N)C(=O)N[C@@H](CCCCN)C(=O)N[C@@H](CC(N)=O)C(=O)N[C@@H](Cc1ccccc1)C(=O)N[C@H](C(=O)N1CCC[C@H]1C(=O)N[C@H](C(=O)N[C@@H](CC(=O)O)C(=O)N[C@H](C(=O)NCC(=O)N1CCC[C@H]1C(=O)N[C@@H](Cc1ccccc1)C(=O)N[C@@H](C)C(=O)N[C@@H](Cc1ccccc1)C(N)=O)C(C)C)[C@@H](C)O)C(C)C)C(C)C)C(C)C)[C@@H](C)O)C(C)C [compound 861],IC50,[2]; [3],0.57 nM
SEQ ID NO:29 (WVTHRLAGLLSXSGGVVRKNFVPTDVGPFAF; CGRP peptide; MOD_RES (1)..(1): …ON; MISC_FEATURE (12)..(12): xaa=citrulline; MOD_RES (31)..(31): AMIDATION),"antagonist activity in cAMP assay, in words",[2],well tolerated
Ac-WVTHRLAGLLSASGGVVRCNFVPTDVGPFAF-NH2 [compound 772],IC50,"[2]; Table 2D, read-out: IC50",2.75 nM
SEQ ID NO:35 (Ac-WVTHRLAGLLSQSGGVVRCNFVPTDVGPFAF-NH2),"antagonist activity in cAMP assay, in words",[2],well tolerated
SEQ ID NO: 26: PEGylated double homoarginine analog (WVTHXLAGLLSXSGGVVRKNFVPTDVGPFAF; PEGylated; homoarginine residues; CGRP peptide; MOD_RES (1)..(1): …ON; MISC_FEATURE (5)..(5): xaa=homoarginine; MISC_FEATURE (12)..(12): xaa=homoarginine; MISC_FEATURE (19)..(19): PEGylated; MOD_RES (31)..(31): AMIDATION),AUC0-inf,[1]; IV,24555 ng·h/mL
same,AUC0-t,[1]; IV,24546 ng·h/mL
same,CL,[1]; IV,1.35 mL/min/kg
same,MRT,[1]; IV,1.01 h
same,Vss,[1]; IV,0.083 L/kg
same,t1/2,[1]; IV,7.39 h
same,AUC0-inf,[1]; SC,1204 ng·h/mL
same,AUC0-t,[1]; SC,1188 ng·h/mL
same,CL/F,[1]; SC,27.67 mL/min/kg
same,Cmax,[1]; SC,143 ng/mL
same,Tmax,[1]; SC,2.00 h
same,t1/2,[1]; SC,26.17 h
SEQ ID NO:14 (Ac-WVTHRLAGLLSRSGGVVC(PEG)NNFVPTDVGPFAF-NH2; reading uncertain),"antagonist activity in cAMP assay, in words",[2],little effect on the antagonist activity of the parent peptide
CC(=O)N[C@@H](Cc1c[nH]c2ccccc12)C(=O)N[C@H](C(=O)N[C@H]1CCC(=O)NCCCC[C@@H](C(=O)NCC(=O)N[C@@H](CC(C)C)C(=O)N[C@@H](CC(C)C)C(=O)N[C@@H](CO)C(=O)N[C@@H](CCCNC(N)=O)C(=O)N[C@@H](CO)C(=O)NCC(=O)NCC(=O)N[C@H](C(=O)N[C@H](C(=O)N[C@@H](CCCCNC(=N)N)C(=O)N[C@@H](CCCCN)C(=O)N[C@@H](CC(N)=O)C(=O)N[C@@H](Cc2ccccc2)C(=O)N[C@H](C(=O)N2CCC[C@H]2C(=O)N[C@H](C(=O)N[C@@H](CC(=O)O)C(=O)N[C@H](C(=O)NCC(=O)N2CCC[C@H]2C(=O)N[C@@H](Cc2ccccc2)C(=O)N[C@@H](C)C(=O)N[C@@H](Cc2ccccc2)C(N)=O)C(C)C)[C@@H](C)O)C(C)C)C(C)C)C(C)C)NC(=O)[C@H](CC(C)C)NC(=O)[C@H](CCCCNC(=N)N)NC(=O)[C@H](Cc2c[nH]cn2)NC1=O)C(C)C [compound 908] (Ac-WVEH[hArg]LKGLLS[Cit]SGGVV[hArg]KNFVPTDVGPFAF-NH2; lactam 3-7),IC50,[2]; [3],1.28 nM
CC(=O)N[C@@H](Cc1c[nH]c2ccccc12)C(=O)N[C@H](C(=O)N[C@H](C(=O)N[C@@H](Cc1c[nH]cn1)C(=O)N[C@@H](CCCNC(N)=O)C(=O)N[C@@H](CC(C)C)C(=O)N[C@@H](C)C(=O)NCC(=O)N[C@@H](CC(C)C)C(=O)N[C@@H](CC(C)C)C(=O)N[C@@H](CO)C(=O)N[C@@H](CCCNC(N)=O)C(=O)N[C@@H](CO)C(=O)NCC(=O)NCC(=O)N[C@H](C(=O)N[C@H](C(=O)N[C@@H](CCCCNC(=N)N)C(=O)N[C@@H](CCCCN)C(=O)N[C@@H](CC(N)=O)C(=O)N[C@@H](Cc1ccccc1)C(=O)N[C@H](C(=O)N1CCC[C@H]1C(=O)N[C@H](C(=O)N[C@@H](CC(=O)O)C(=O)N[C@H](C(=O)NCC(=O)NC1(C(=O)N[C@@H](Cc2ccccc2)C(=O)N[C@@H](C)C(=O)N[C@@H](Cc2ccccc2)C(N)=O)Cc2ccccc2C1)C(C)C)[C@@H](C)O)C(C)C)C(C)C)C(C)C)[C@@H](C)O)C(C)C [compound 669],IC50,"[2]; Table 2A, read-out: IC50",33.2 to 262 nM
CC(=O)N[C@@H](Cc1c[nH]c2ccccc12)C(=O)N[C@H](C(=O)N[C@H](C(=O)N[C@@H](Cc1c[nH]cn1)C(=O)N[C@@H](CCC(N)=O)C(=O)N[C@@H](CC(C)C)C(=O)N[C@@H](C)C(=O)NCC(=O)N[C@@H](CC(C)C)C(=O)N[C@@H](CC(C)C)C(=O)N[C@@H](CO)C(=O)N[C@@H](CCC(N)=O)C(=O)N[C@@H](CO)C(=O)NCC(=O)NCC(=O)N[C@H](C(=O)N[C@H](C(=O)N[C@@H](CCCCNC(=N)N)C(=O)N[C@@H](CCCCN)C(=O)N[C@@H](CC(N)=O)C(=O)N[C@@H](Cc1ccccc1)C(=O)N[C@H](C(=O)N1CCC[C@H]1C(=O)N[C@H](C(=O)N[C@@H](CC(=O)O)C(=O)N[C@H](C(=O)NCC(=O)N1CCC[C@H]1C(=O)N[C@@H](Cc1ccccc1)C(=O)N[C@@H](C)C(=O)N[C@@H](Cc1ccccc1)C(N)=O)C(C)C)[C@@H](C)O)C(C)C)C(C)C)C(C)C)[C@@H](C)O)C(C)C [compound 885] (Ac-WVTHQLAGLLSQSGGVV[hArg]KNFVPTDVGPFAF-NH2),IC50,[2]; [3],1.42 nM
SEQ ID NO:16 (Ac-WVTHRLAGLLSRSGGVVRK(PEG)NFVPTDVGPFAF-NH2; reading uncertain),improved potency relative to native CGRP(8-37) (SEQ ID NO:1),[2]; cAMP assay,about 12 fold
same,loss in antagonist activity on PEGylation relative to the unconjugated parent peptide,[2]; cAMP assay,three
CC(=O)N[C@@H](Cc1c[nH]c2ccccc12)C(=O)N[C@H](C(=O)N[C@H](C(=O)N[C@@H](Cc1cnc[nH]1)C(=O)N[C@@H](CCCNC(N)=O)C(=O)N[C@@H](CC(C)C)C(=O)N[C@@H](C)C(=O)NCC(=O)N[C@@H](CC(C)C)C(=O)N[C@@H](CC(C)C)C(=O)N[C@@H](CO)C(=O)N[C@@H](CCCNC(N)=O)C(=O)N[C@@H](CO)C(=O)NCC(=O)NCC(=O)N[C@H](C(=O)N[C@H](C(=O)N[C@@H](CCCCNC(=N)N)C(=O)N[C@@H](CCCCN)C(=O)N[C@@H](CC(N)=O)C(=O)N[C@@H](Cc1ccccc1)C(=O)N[C@H](C(=O)N1CCC[C@H]1C(=O)N[C@H](C(=O)N[C@@H](CC(=O)O)C(=O)N[C@H](C(=O)NCC(=O)N1CCC[C@H]1C(=O)N[C@@H](Cc1ccccc1)C(=O)N[C@@H](C)C(=O)N[C@@H](Cc1ccccc1)C(N)=O)C(C)C)[C@@H](C)O)C(C)C)C(C)C)C(C)C)[C@@H](C)O)C(C)C [compound 653],IC50,"[2]; Table 2A, read-out: IC50",3.22 nM
CC(=O)N[C@@H](Cc1c[nH]c2ccccc12)C(=O)N[C@H](C(=O)N[C@H](C(=O)N[C@@H](Cc1c[nH]cn1)C(=O)N[C@@H](CCCNC(N)=O)C(=O)N[C@@H](CC(C)C)C(=O)N[C@@H](C)C(=O)NCC(=O)N[C@@H](CC(C)C)C(=O)N[C@@H](CC(C)C)C(=O)N[C@@H](CO)C(=O)N[C@@H](CCCNC(N)=O)C(=O)N[C@@H](CO)C(=O)NCC(=O)NCC(=O)N[C@H](C(=O)N[C@H](C(=O)N[C@@H](CCCNC(=N)N)C(=O)N[C@@H](CCCCN)C(=O)N[C@@H](CC(N)=O)C(=O)N[C@@H](Cc1ccccc1)C(=O)N[C@H](C(=O)N1CCC[C@H]1C(=O)N[C@H](C(=O)N[C@@H](CC(=O)O)C(=O)N[C@H](C(=O)NCC(=O)N1CCC[C@H]1C(=O)N[C@@H](Cc1ccccc1)C(=O)N[C@@H](C)C(=O)N[C@@H](Cc1ccc(I)cc1)C(N)=O)C(C)C)[C@@H](C)O)C(C)C)C(C)C)C(C)C)[C@@H](C)O)C(C)C [compound 923],IC50,[2]; [3],2.24 nM

# Source: patent publication US8168592B2 (Amgen Inc., priority 2005, dated 2012)
